B1: MYU lncRNA (ssRNA)
RNA: GGCUCCCCCGACCUCUGUGCUCCCCUCCCCCGACCUCUGUGC
B2: Sirloin motif (ssRNA)
RNA: GCGCCUCCCGGGUUCAAGCGAUUCUCCUGCCUCAGCCUCCCGA
B3: CDK6 3'UTR (ssRNA)
RNA: GGUCCCCCGCCUCAUUCGCCCCUCUGCUCCC
B4: B motif RNA WT (structured_RNA)
RNA: GCAGCCCCAGCCCCAGCCCCUACCCCUGCCCCUGCCCCUGC
B5: Rab7 (ssRNA)
RNA: GUCAUUUUCUCCCUUUCUGUUUUUCUUC
B6: Ucp2 (ssRNA)
RNA: GCCAACCUCUUCCCAUUUCCCACACUCCAACUCCCU
B7: M5' ssDNA (ssDNA)
DNA: ATATTCCCTC
B8: (2,3) (structured_RNA)
RNA: GCAGUUUCAGCCCCAGCCCCUAUUUCUGUUUCUGUUUCUGC
B9: Exon 4 hp (structured_RNA)
RNA: GCUGGCGACCUAUUCCCUUUGACGAUCCCUAGGUGGAGAUGGGGCAUGAGGAUCCUCCAGGGGAAUAGCUCACCACC
B10: (1,2,3,4) (structured_RNA)
RNA: GCAGCCCCAGCCCCAGCCCCUACCCCUGUUUCUGUUUCUGC
B11: (1,2,3) (structured_RNA)
RNA: B10 RNA with C23U, C24U, C25U
B12: (1,2,3,4,5) (structured_RNA)
RNA: B4 RNA with C35U, C36U, C37U
B13: (1,6) (structured_RNA)
RNA: GCAGCCCCAGUUUCAGUUUUUAUUUCUGUUUCUGCCCCUGC
B14: (1,3) (structured_RNA)
RNA: GCAGCCCCAGUUUCAGCCCCUAUUUCUGUUUCUGUUUCUGC

Residue numbers refer to the chain shown, from its start.

The first series addresses hnRNPK deltaKH3 (human/mouse (100% identical), UniProt P61978 1-337). Kind of series: fluorescence anisotropy. Background: In fluorescence polarisation assays a small probe gives low polarisation when free and higher when bound to something large.
What is called Kd is a measure of binding affinity in units of concentration. A low value points to a tighter complex. Molecule B1 displayed an equilibrium dissociation constant (Kd) of 120 ± 10 nM.
For B2, binding was characterised by a dissociation constant (Kd) of 760 ± 40 nM.
On the same count and under the same terms, the same measure for B3: 710 ± 50 nM; for B4: 140 ± 30 nM; for B5: 360 ± 80 nM.
Take B6: binding was characterised by a dissociation constant (Kd) of 87 ± 9 nM.

The target in another series is hnRNPK R9 to S9 (human/mouse (100% identical), UniProt P61978 1-463, R247S;R256S;R258S;R268S;R287S;R296S;R299S;R316S;R326S). Kind of series: fluorescence anisotropy.
Consider B7, for which the Kd is 3000 ± 100 nM.

The target in the next series is T1, hnRNPK full-length (human/mouse (100% identical), UniProt P61978 1-463). Briefly: fluorescence anisotropy.
Consider B1, for which the Kd was 70 ± 7 nM.
In turn, B2 registered a dissociation constant Kd of 690 ± 20 nM.
With B3, binding was characterised by a dissociation constant (Kd) of 450 ± 60 nM.
Same read-out and setting: in the case of B8 it was 710 nM; in that of B4, 61 ± 6 nM.
With B9, the binding result is on record as “no binding”.
In turn, B5 came in with a dissociation constant (Kd) of 110 ± 20 nM.
The same measure, in the same setting: the same measure for B7: 1400 ± 200 nM.
Still for that read-out and setting: the same measure for B6: 44 ± 3 nM.

A further series has as its target hnRNPK KH3 (human/mouse (100% identical), UniProt P61978 379-463). Briefly: fluorescence anisotropy.
Take B3: the affinity, expressed as Kd, was 12900 ± 700 nM.
Molecule B7 had a Kd of 8700 ± 1300 nM.
On the same count and under the same terms, in the case of B6 it was 11100 ± 600 nM.

For the next series, the target named is T1, hnRNPK full-length. Briefly: fluorescence anisotropy. The source holds these as a separate data set.
For the molecule B10, the binding result was “binds”.
On the same count and under the same terms, in the case of B11 it was “binds”.
On the same count and under the same terms, in the case of B12 it was “binds”.

A further series has as its target T1, hnRNPK full-length. Kind of series: fluorescence anisotropy. The source holds these as a separate data set.
Turning to B13, the binding result is “no binding”.
Regarding B14, the binding result was “no binding”.

For another series, the target named is hnRNPK KH1 (human/mouse (100% identical), UniProt P61978 37-120). Briefly: fluorescence anisotropy.
Consider B4, for which the binding result was “no binding”.

For the origin of these results see PMC7498318.
